Experiment: time-resolved SAXS; rSslE 0.7 mg/ml in 20 mM citrate-phosphate buffer pH 4.4, 25 °C, stirred and circulated, data every 30 min over 11 h; COSMiCS decomposition into monomer and aggregate
Conditions: other: time-resolved SAXS

recombinant SslE from E. coli W (rSslE; residues 67 to 1497)
molar fraction of the aggregated species after 30 min: the aggregated species already represented 50% of the molar fraction
